# Assay results: patent US20200316211A1, “LOCALLY ACTING TOLL-LIKE RECEPTOR 7 (TLR7) AND/OR TLR8 AGONIST IMMUNOTHERAPY COMPOUNDS AND THEIR USES” (Altimmune UK Limited, priority 2019, published 2020)
# Where a SMILES comes first, the peptide text is derived from it. Where no end group is shown, it is not given here. Side-chain parts run from the residue outwards. The star is where a group is joined. X1 = CCCCc1nc2c(N)nc3ccccc3c2n1Cc1ccc(CNC(=O)COCC(=O)*)cc1; Palmitoyl = CCCCCCCCCCCCCCCC(=O)*; PEG3 = NCCOCCOCCOCCC(=O)O; ADJ12 = not defined here
# Key:
# [1] = poloxamer 407 thermogel formulation, intratumoral, animal models; cited from earlier work
# [2] = intratumoral, very low doses (0.005 to 0.055 mg); cited from earlier work
# [3] = Change in body weight in the CT26 study (systemic toxicity); assay type: in vivo, BALB/c mice; settings: 100 nmol/dose/animal intratumoral, day 1, 3, 5; body weight minus tumor weight; FIG. 11
# Procedure: (§1) Six to eight-week-old female BALB/c mice (Charles River) were injected subcutaneously with 2×10^5 CT26 cells on the right flank. When the tumors reached an average volume of ˜150 mm^3, mice were randomized into seven groups of eight mice per group, approximately 10 days (13 days) post tumor cell grafting, referred as day 0. After randomization, tumor size and body weight were assessed three times a week for the duration of the study. Animals were sacrificed according to the following humane endpoints: tumor volume ≥2000 mm^3, presence of necrotic or ulcerated tumor, impaired mobility including transient prostration or hunched posture, or interference with a vital physiological function. Treatments were initiated on day 1. All animals from group 1 to group 6 received three intratumoral injections of either formulated or non-formulated small molecule TLR7/8 agonists, or vehicle control, once every two days, on day 1, day 3 and day 5, in 50 μl delivery dose. Mice of group 7 were untreated. Animals from group 1 to group 4 were respectively treated with 100 nmol/dose/animal of kHL-12 or pHL-12 both prepared in 28 mM L-Histidine/Mannitol dilution buffer, or 3M-052 (MedChemExpress, teltralimod Cat. No.: HY-109104) prepared in ethanol/sesame oil (1:10), or R848 (Invivogen, R848 VacciGrade™, Cat. Code vac-r848) reconstituted in 28 mM L-Histidine/Mannitol dilution buffer. Mice from group 5 and group 6 received control vehicles in the delivery dose of 50 μl, 28 mM L-Histidine/Mannitol dilution buffer and ethanol/sesame oil (1:10), respectively.
# (§2) Body weight was normalized by subtracting the weight of the tumor to the overall body weight.
# CT26 cells = experiment: Antitumor activity after intratumoral injection, CT26 right flank model; assay type: in vivo, BALB/c mice; settings: 100 nmol/dose/animal intratumoral, day 1, 3, 5; FIG. 10
# Procedure: as §1, §2
# [4] = Appearance (visual) and solubility (RP-HPLC of supernatant) in different buffer conditions; assay type: physicochemical; settings: for Solubility/appearance across buffer conditions: change in pH and/or presence of sodium chloride; for HPLC solubility: peak area vs same compound in 10% acetic acid
# Procedure: The solubility of peptide conjugates KK-12, HH-12, AH-12 and HL-12 was determined by visual inspection of the solution and by RP-HPLC. Twenty (20) minutes after dispersion of the peptide conjugates in different buffer conditions, the solutions were centrifuged for 10 minutes and the supernatant analyzed by RP-HPLC. The peak area of each peptide conjugate was compared with the area of the same compound made fully soluble in 10% acetic acid. Appearance of the solution was evaluated visually according to the following criteria: clear, very slightly opalescent, slightly opalescent, opalescent or precipitated.
# [5] = in more than half of the participants; cited from earlier work
Compound,Impact on body weight over time [3],Antitumoral activity (median tumor volume) (CT26 cells),Solubility/appearance across buffer conditions [4],"HPLC solubility ([4]; pH 5.2, NaCl 154 mM)","HPLC solubility ([4]; pH 5.2, no NaCl)","HPLC solubility ([4]; pH 7.5, NaCl 154 mM)","HPLC solubility ([4]; pH 7.5, no NaCl)",further results
CCCCCCCCCCCCCCCCCC(=O)NCCCCOn1c(CCCC)nc2c(N)nc3ccccc3c21 [3M-052],pronounced loss in body weight,comparable,–,–,–,–,–,Systemic release of the drug [1]: systemic release of the drug after administration of this formulation was still observed; Clinical adverse events [2]: induction of adverse events related to cytokine release syndrome
"CCCCc1nc2c(N)nc3ccccc3c2n1Cc1ccc(CNC(=O)COCC(=O)NCCOCCOCCOCCC(=O)NCCCC[C@H](NC(=O)[C@H](CC(C)C)NC(=O)[C@H](CCCNC(=N)N)NC(=O)[C@H](CCCNC(=N)N)NC(=O)[C@H](CC(C)C)NC(=O)[C@H](CC(C)C)NC(=O)[C@H](C)NC(=O)[C@H](C)NC(=O)[C@H](Cc2c[nH]cn2)NC(=O)[C@H](CC(C)C)NC(=O)[C@H](C)NC(=O)[C@H](CC(C)C)NC(=O)[C@H](Cc2c[nH]cn2)NC(=O)[C@H](C)NC(=O)[C@H](C)NC(=O)[C@H](CC(C)C)NC(=O)[C@H](CC(C)C)NC(=O)[C@H](CCCNC(=N)N)NC(=O)[C@H](CCCNC(=N)N)NC(C)=O)C(N)=O)cc1 [AH-12, Ac-RRLLAAHLALHAALLRRLK(ADJ12)-NH2] (Ac-RRLLAAHLALHAALLRRLK([PEG3-X1])-NH2)",–,–,change in appearance and/or HPLC solubility,>98% HPLC,>98% HPLC,90% HPLC,>98% HPLC,–
CCCCOc1nc(N)c2[nH]c(=O)n(CCCN(CCCN3CCOCC3)Cc3cccc(CC(=O)OC)c3)c2n1 [AZD8848],–,–,–,–,–,–,–,Clinical safety issues from systemic interferon signaling [5]: significant influenza-like symptoms
"CCCCc1nc2c(N)nc3ccccc3c2n1Cc1ccc(CNC(=O)COCC(=O)NCCOCCOCCOCCC(=O)NCCCC[C@H](NC(=O)[C@H](CC(C)C)NC(=O)[C@H](CCCNC(=N)N)NC(=O)[C@H](CCCNC(=N)N)NC(=O)[C@H](CC(C)C)NC(=O)[C@H](CC(C)C)NC(=O)[C@H](Cc2c[nH]cn2)NC(=O)[C@H](C)NC(=O)[C@H](Cc2c[nH]cn2)NC(=O)[C@H](CC(C)C)NC(=O)[C@H](C)NC(=O)[C@H](CC(C)C)NC(=O)[C@H](Cc2c[nH]cn2)NC(=O)[C@H](C)NC(=O)[C@H](Cc2c[nH]cn2)NC(=O)[C@H](CC(C)C)NC(=O)[C@H](CC(C)C)NC(=O)[C@H](CCCNC(=N)N)NC(=O)[C@H](CCCNC(=N)N)NC(C)=O)C(N)=O)cc1 [HH-12, Ac-RRLLHAHLALHAHLLRRLK(ADJ12)-NH2] (Ac-RRLLHAHLALHAHLLRRLK([PEG3-X1])-NH2)",–,–,change in appearance and/or HPLC solubility,>98% HPLC,>98% HPLC,55% HPLC,>98% HPLC,–
"CCCCc1nc2c(N)nc3ccccc3c2n1Cc1ccc(CNC(=O)COCC(=O)NCCOCCOCCOCCC(=O)NCCCC[C@H](NC(=O)[C@H](CC(C)C)NC(=O)[C@H](CCCNC(=N)N)NC(=O)[C@H](CCCNC(=N)N)NC(=O)[C@H](CC(C)C)NC(=O)[C@H](CC(C)C)NC(=O)[C@H](Cc2c[nH]cn2)NC(=O)[C@H](C)NC(=O)[C@H](CC(C)C)NC(=O)[C@H](CC(C)C)NC(=O)[C@H](C)NC(=O)[C@H](CC(C)C)NC(=O)[C@H](CC(C)C)NC(=O)[C@H](C)NC(=O)[C@H](Cc2c[nH]cn2)NC(=O)[C@H](CC(C)C)NC(=O)[C@H](CC(C)C)NC(=O)[C@H](CCCNC(=N)N)NC(=O)[C@H](CCCNC(=N)N)NC(C)=O)C(N)=O)cc1 [HL-12, Ac-RRLLHALLALLAHLLRRLK(ADJ12)-NH2] (Ac-RRLLHALLALLAHLLRRLK([PEG3-X1])-NH2)",–,–,change in appearance and/or HPLC solubility,>98% HPLC,>98% HPLC,0% HPLC,>98% HPLC,–
"CCCCc1nc2c(N)nc3ccccc3c2n1Cc1ccc(CNC(=O)COCC(=O)NCCOCCOCCOCCC(=O)NCCCC[C@H](NC(=O)[C@H](CC(C)C)NC(=O)[C@H](CCCNC(=N)N)NC(=O)[C@H](CCCNC(=N)N)NC(=O)[C@H](CC(C)C)NC(=O)[C@H](CC(C)C)NC(=O)[C@H](CCCCN)NC(=O)[C@H](C)NC(=O)[C@H](CCCCN)NC(=O)[C@H](CC(C)C)NC(=O)[C@H](C)NC(=O)[C@H](CC(C)C)NC(=O)[C@H](CCCCN)NC(=O)[C@H](C)NC(=O)[C@H](CCCCN)NC(=O)[C@H](CC(C)C)NC(=O)[C@H](CC(C)C)NC(=O)[C@H](CCCNC(=N)N)NC(=O)[C@H](CCCNC(=N)N)NC(C)=O)C(N)=O)cc1 [KK-12, Ac-RRLLKAKLALKAKLLRRLK(ADJ12)-NH2] (Ac-RRLLKAKLALKAKLLRRLK([PEG3-X1])-NH2)",–,–,remains soluble,>98% HPLC,>98% HPLC,>98% HPLC,>98% HPLC,–
"CCOCc1nc2c(N)nc3ccccc3c2n1CC(C)(C)O [R848, 1-(4-amino-2-(ethoxymethyl)-1H-imidazo[4,5-c]quinolin-1-yl)-2-methylpropan-2-ol]",pronounced loss in body weight,comparable,–,–,–,–,–,–
"CCCCc1nc2c(N)nc3ccccc3c2n1Cc1ccc(CNC(=O)COCC(=O)NCCOCCOCCOCCC(=O)NCCCC[C@H](NC(=O)[C@H](CC(C)C)NC(=O)[C@H](CCCNC(=N)N)NC(=O)[C@H](CCCNC(=N)N)NC(=O)[C@H](CC(C)C)NC(=O)[C@H](CC(C)C)NC(=O)[C@H](Cc2c[nH]cn2)NC(=O)[C@H](C)NC(=O)[C@H](CC(C)C)NC(=O)[C@H](CC(C)C)NC(=O)[C@H](C)NC(=O)[C@H](CC(C)C)NC(=O)[C@H](CC(C)C)NC(=O)[C@H](C)NC(=O)[C@H](Cc2c[nH]cn2)NC(=O)[C@H](CC(C)C)NC(=O)[C@H](CC(C)C)NC(=O)[C@H](CCCNC(=N)N)NC(=O)[C@H](CCCNC(=N)N)NC(=O)[C@@H](N)CCCCNC(C)=O)C(N)=O)cc1 [kHL-12, K(Ac)—RRLLHALLALLAHLLRRLK(ADJ12)-NH2] (H-K(Ac)RRLLHALLALLAHLLRRLK([PEG3-X1])-NH2; N-terminus and C-terminus assumed)",limited impact on the body weight,–,–,–,–,–,–,–
K(Pam)-RRLLHALLALLAHLLRRLK(ADJ12)-NH2 (K(Palmitoyl)RRLLHALLALLAHLLRRLK(ADJ12)-NH2; reading uncertain; also: printed as K(Pam)-RRLLHALLALLAHLLRRLK(ADJ12)-NH2) [pHL-12],–,lower level of antitumor activity,–,–,–,–,–,–
